This is an account of results in publication PMC5499655.

The series addresses T1, His6-BldD (Streptomyces venezuelae) (UniProt A0ABZ1NMZ0).
T1 sequence: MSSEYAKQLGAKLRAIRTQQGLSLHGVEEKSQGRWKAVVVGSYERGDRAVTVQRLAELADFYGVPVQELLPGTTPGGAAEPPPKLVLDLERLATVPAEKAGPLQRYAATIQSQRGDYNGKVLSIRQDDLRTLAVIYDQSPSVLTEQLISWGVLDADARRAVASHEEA
Kind of series: EMSA. Particulars: binding buffer and pH not stated. (In EMSA bound probe runs differently from free probe, usually more slowly.)

Take “CTCCCAGAGGCAGAGCTTCCATCACGTGCAGTGCGGGACCGTTCACCCGTCGTGGCGACGTGAGGGGTCCTTTGTGCGTCTGAGGAGAATAACGCTTCGTACAGGCAGCGCTACACCCAGTTGCCTAAATCACCGGTTCCG (double strand) [bldN promoter]”: the binding result is given as “binds”.
For “GCCATGACCTGCTGTGACTTGAGTCACAGAGGCGAGTATTTGCTGACCCTGTGTACCGGGTGCGCAGCTCGCTGTGATTCAGTGGCGGTGACAGTGCAACACGAAGCCGATGAGAACCCTGGAGTTGCTGTCGAGGTCTCG (double strand) [cdgB promoter]”, the binding result is “binds”.
